Test results reported in patent US20140087995A1 (published 2014).
Residue numbers refer to the chain shown, from its start. Numbered stars: 1 amine (or outer) side, 2 acyl side, 3 side chain; on linkers, the order of the positions; unused ones are H or OH. Bridge positions count the residues as written; N and C are the ends. Side chains are listed from the residue outwards. Ends that are not written are not given here. * marks the point of attachment. C20 diacid = O=C(O)CCCCCCCCCCCCCCCCCCC(=O)*; γGlu = O=C(O)[C@H](CCC(=O)[*:2])N[*:1]

T1: human amylin receptor (amylin 3(a) receptor: human calcitonin receptor with RAMP-3) (human, UniProt P30988 25-474; O60896 24-148, limits assumed)
T1 sequence (looked up) 1: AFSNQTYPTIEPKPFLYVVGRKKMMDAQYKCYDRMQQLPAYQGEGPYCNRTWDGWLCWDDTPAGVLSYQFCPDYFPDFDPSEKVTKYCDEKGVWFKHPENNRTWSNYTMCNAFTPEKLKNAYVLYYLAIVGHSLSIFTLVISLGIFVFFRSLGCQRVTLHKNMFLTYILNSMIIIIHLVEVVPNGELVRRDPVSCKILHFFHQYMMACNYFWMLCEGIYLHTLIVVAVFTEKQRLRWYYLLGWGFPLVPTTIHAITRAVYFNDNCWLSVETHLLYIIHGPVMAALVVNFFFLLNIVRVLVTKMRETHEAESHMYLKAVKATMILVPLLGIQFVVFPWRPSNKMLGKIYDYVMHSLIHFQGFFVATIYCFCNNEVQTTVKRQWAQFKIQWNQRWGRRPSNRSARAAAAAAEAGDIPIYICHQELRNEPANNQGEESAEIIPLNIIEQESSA
T1 sequence (looked up) 2: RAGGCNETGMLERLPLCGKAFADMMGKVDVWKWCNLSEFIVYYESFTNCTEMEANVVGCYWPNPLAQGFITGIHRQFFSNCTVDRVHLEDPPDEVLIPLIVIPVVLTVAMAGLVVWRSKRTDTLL

T2: human calcitonin receptor (human, UniProt P30988 25-474)
T2 sequence (looked up): T1 sequence (looked up) 1

T3: human calcitonin receptor (human, UniProt P30988 25-474)
T3 construct: whole, on cells; Assay used cell membranes of the transfected BHK cells; also called hCTR; hCT
T3 sequence (looked up): T1 sequence (looked up) 1

T4: human amylin receptor (human, UniProt P30988 25-474; O60896 24-148, limits assumed)
T4 construct: whole, on cells; Assay used cell membranes of the Amylin 3(a)/CRE-luc BHK cells; the complex is called the human amylin receptor; also called hAmylin-R; hAmylinR
T4 sequence (looked up) 1: T1 sequence (looked up) 1
T4 sequence (looked up) 2: T1 sequence (looked up) 2

B1: N^ε1-[(4S)-4-carboxy-4-[[(4S)-4-carboxy-4-(19-carboxynonadecanoylamino)butanoyl]amino]butanoyl]-[Glu14,Arg17,Pro21,Pro27,Arg34]-h-amylin (peptide)
peptide: K([γGlu-γGlu-C20 diacid])CNTATCATQRLAEFLRHSSPNFGAIPSSTNVGRNTY-NH2
modifications: disulfide 2-7; N-terminus assumed
SMILES: CC[C@H](C)[C@H](NC(=O)[C@H](C)NC(=O)CNC(=O)[C@H](Cc1ccccc1)NC(=O)[C@H](CC(N)=O)NC(=O)[C@@H]1CCCN1C(=O)[C@H](CO)NC(=O)[C@H](CO)NC(=O)[C@H](Cc1c[nH]cn1)NC(=O)[C@H](CCCNC(=N)N)NC(=O)[C@H](CC(C)C)NC(=O)[C@H](Cc1ccccc1)NC(=O)[C@H](CCC(=O)O)NC(=O)[C@H](C)NC(=O)[C@H](CC(C)C)NC(=O)[C@H](CCCNC(=N)N)NC(=O)[C@H](CCC(N)=O)NC(=O)[C@@H](NC(=O)[C@H](C)NC(=O)[C@@H]1CSSC[C@H](NC(=O)[C@@H](N)CCCCNC(=O)CC[C@H](NC(=O)CC[C@H](NC(=O)CCCCCCCCCCCCCCCCCCC(=O)O)C(=O)O)C(=O)O)C(=O)N[C@@H](CC(N)=O)C(=O)N[C@@H]([C@@H](C)O)C(=O)N[C@@H](C)C(=O)N[C@@H]([C@@H](C)O)C(=O)N1)[C@@H](C)O)C(=O)N1CCC[C@H]1C(=O)N[C@@H](CO)C(=O)N[C@@H](CO)C(=O)N[C@H](C(=O)N[C@@H](CC(N)=O)C(=O)N[C@H](C(=O)NCC(=O)N[C@@H](CCCNC(=N)N)C(=O)N[C@@H](CC(N)=O)C(=O)N[C@H](C(=O)N[C@@H](Cc1ccc(O)cc1)C(N)=O)[C@@H](C)O)C(C)C)[C@@H](C)O
notes: also called compound 88
B2: N^ε1-[(4S)-4-carboxy-4-[[(4S)-4-carboxy-4-(19-carboxynonadecanoylamino)butanoyl]amino]butanoyl]-[Glu14,Arg17,Pro21,Pro27,His34]-h-amylin (peptide)
peptide: K([γGlu-γGlu-C20 diacid])CNTATCATQRLAEFLRHSSPNFGAIPSSTNVGHNTY-NH2
modifications: disulfide 2-7; N-terminus assumed
SMILES: CC[C@H](C)[C@H](NC(=O)[C@H](C)NC(=O)CNC(=O)[C@H](Cc1ccccc1)NC(=O)[C@H](CC(N)=O)NC(=O)[C@@H]1CCCN1C(=O)[C@H](CO)NC(=O)[C@H](CO)NC(=O)[C@H](Cc1c[nH]cn1)NC(=O)[C@H](CCCNC(=N)N)NC(=O)[C@H](CC(C)C)NC(=O)[C@H](Cc1ccccc1)NC(=O)[C@H](CCC(=O)O)NC(=O)[C@H](C)NC(=O)[C@H](CC(C)C)NC(=O)[C@H](CCCNC(=N)N)NC(=O)[C@H](CCC(N)=O)NC(=O)[C@@H](NC(=O)[C@H](C)NC(=O)[C@@H]1CSSC[C@H](NC(=O)[C@@H](N)CCCCNC(=O)CC[C@H](NC(=O)CC[C@H](NC(=O)CCCCCCCCCCCCCCCCCCC(=O)O)C(=O)O)C(=O)O)C(=O)N[C@@H](CC(N)=O)C(=O)N[C@@H]([C@@H](C)O)C(=O)N[C@@H](C)C(=O)N[C@@H]([C@@H](C)O)C(=O)N1)[C@@H](C)O)C(=O)N1CCC[C@H]1C(=O)N[C@@H](CO)C(=O)N[C@@H](CO)C(=O)N[C@H](C(=O)N[C@@H](CC(N)=O)C(=O)N[C@H](C(=O)NCC(=O)N[C@@H](Cc1c[nH]cn1)C(=O)N[C@@H](CC(N)=O)C(=O)N[C@H](C(=O)N[C@@H](Cc1ccc(O)cc1)C(N)=O)[C@@H](C)O)C(C)C)[C@@H](C)O
notes: also called compound 87
B3: N^α1 N^α1-[(4S)-4-carboxy-4-[[(4S)-4-carboxy-4-(19-carboxynonadecanoylamino)butanoyl]amino]butanoyl]-[Glu14,Arg17,Pro21,Pro27]-h-amylin (peptide)
peptide: {C20 diacid-γGlu-γGlu}-KCNTATCATQRLAEFLRHSSPNFGAIPSSTNVGSNTY-NH2
modifications: disulfide 2-7
SMILES: CC[C@H](C)[C@H](NC(=O)[C@H](C)NC(=O)CNC(=O)[C@H](Cc1ccccc1)NC(=O)[C@H](CC(N)=O)NC(=O)[C@@H]1CCCN1C(=O)[C@H](CO)NC(=O)[C@H](CO)NC(=O)[C@H](Cc1c[nH]cn1)NC(=O)[C@H](CCCNC(=N)N)NC(=O)[C@H](CC(C)C)NC(=O)[C@H](Cc1ccccc1)NC(=O)[C@H](CCC(=O)O)NC(=O)[C@H](C)NC(=O)[C@H](CC(C)C)NC(=O)[C@H](CCCNC(=N)N)NC(=O)[C@H](CCC(N)=O)NC(=O)[C@@H](NC(=O)[C@H](C)NC(=O)[C@@H]1CSSC[C@H](NC(=O)[C@H](CCCCN)NC(=O)CC[C@H](NC(=O)CC[C@H](NC(=O)CCCCCCCCCCCCCCCCCCC(=O)O)C(=O)O)C(=O)O)C(=O)N[C@@H](CC(N)=O)C(=O)N[C@@H]([C@@H](C)O)C(=O)N[C@@H](C)C(=O)N[C@@H]([C@@H](C)O)C(=O)N1)[C@@H](C)O)C(=O)N1CCC[C@H]1C(=O)N[C@@H](CO)C(=O)N[C@@H](CO)C(=O)N[C@H](C(=O)N[C@@H](CC(N)=O)C(=O)N[C@H](C(=O)NCC(=O)N[C@@H](CO)C(=O)N[C@@H](CC(N)=O)C(=O)N[C@H](C(=O)N[C@@H](Cc1ccc(O)cc1)C(N)=O)[C@@H](C)O)C(C)C)[C@@H](C)O
notes: Synthetic analogue; also called compound 15
B4: N^α1-[(4S)-4-carboxy-4-(19-carboxynonadecanoylamino)butanoyl]-[Arg17,Pro21,Pro27,Lys35]-h-amylin (peptide)
peptide: KCNTATCATQRLANFLRHSSPNFGAIPSSTNVGSKTY
modifications: C20 diacid-gGlu on the alpha amino group of the N-terminal residue (Lys1); disulfide Cys2-Cys7; C-terminal amide
notes: Synthetic analogue; also called compound 34
B5: N^ε1-[(4S)-4-carboxy-4-[[(4S)-4-carboxy-4-(19-carboxynonadecanoylamino)butanoyl]amino]butanoyl]-[Asp14,Arg17,Pro21,Pro27,Asp35]-h-amylin (peptide)
peptide: K([γGlu-γGlu-C20 diacid])CNTATCATQRLADFLRHSSPNFGAIPSSTNVGSDTY-NH2
modifications: disulfide 2-7; N-terminus assumed
SMILES: CC[C@H](C)[C@H](NC(=O)[C@H](C)NC(=O)CNC(=O)[C@H](Cc1ccccc1)NC(=O)[C@H](CC(N)=O)NC(=O)[C@@H]1CCCN1C(=O)[C@H](CO)NC(=O)[C@H](CO)NC(=O)[C@H](Cc1c[nH]cn1)NC(=O)[C@H](CCCNC(=N)N)NC(=O)[C@H](CC(C)C)NC(=O)[C@H](Cc1ccccc1)NC(=O)[C@H](CC(=O)O)NC(=O)[C@H](C)NC(=O)[C@H](CC(C)C)NC(=O)[C@H](CCCNC(=N)N)NC(=O)[C@H](CCC(N)=O)NC(=O)[C@@H](NC(=O)[C@H](C)NC(=O)[C@@H]1CSSC[C@H](NC(=O)[C@@H](N)CCCCNC(=O)CC[C@H](NC(=O)CC[C@H](NC(=O)CCCCCCCCCCCCCCCCCCC(=O)O)C(=O)O)C(=O)O)C(=O)N[C@@H](CC(N)=O)C(=O)N[C@@H]([C@@H](C)O)C(=O)N[C@@H](C)C(=O)N[C@@H]([C@@H](C)O)C(=O)N1)[C@@H](C)O)C(=O)N1CCC[C@H]1C(=O)N[C@@H](CO)C(=O)N[C@@H](CO)C(=O)N[C@H](C(=O)N[C@@H](CC(N)=O)C(=O)N[C@H](C(=O)NCC(=O)N[C@@H](CO)C(=O)N[C@@H](CC(=O)O)C(=O)N[C@H](C(=O)N[C@@H](Cc1ccc(O)cc1)C(N)=O)[C@@H](C)O)C(C)C)[C@@H](C)O
notes: Synthetic analogue; also called compound 2
B6: N^α1-[2-[2-[2-[[2-[2-[2-[[(4S)-4-carboxy-4-(19-carboxynonadecanoylamino)butanoyl]amino]ethoxy]ethoxy]acetyl]amino]ethoxy]ethoxy]acetyl]-[Arg17,Pro21,Pro27]-h-am … (peptide)
peptide: B4 peptide with K35N
modifications: C20 diacid-gGlu-2xOEG on the alpha amino group of the N-terminal residue (Lys1); disulfide Cys2-Cys7; C-terminal amide
notes: Synthetic analogue; also called compound 24

Biological target: T1, human amylin receptor (amylin 3(a) …)
Assay: cell-based or functional assay

| Binder | hAmylin-R funct. EC50 (pM) |
| --- | --- |
| B1 | 773 |
| B2 | 285 |

Biological target: T2, human calcitonin receptor
Assay: cell-based or functional assay

| Binder | Ratio hCT/hAmylin funct. [ratio] |
| --- | --- |
| B1 | 8.5 |
| B2 | 3.8 |

Biological target: T3, human calcitonin receptor
Assay: ratio IC50 hCTR / IC50 hAmylin-R of the two SPA competition assays; reference: human amylin receptor
Method in brief: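 Scintillation proximity competition binding on cell membranes at 35 ng/μL with SPA beads, in 50 mM Hepes pH 7.4, 1 mM CaCl2, 5 mM MgCl₂, 0.1% OA, 0.02% Tween20. Incubated 120 min at 25° C with shaking. IC₅₀ from one-site competition fit.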

| Binder | Ratio hCT/hAmylin binding |
| --- | --- |
| B3 | 26 |
| B4 | 64.4 |
| B5 | 47.5 |
| B6 | 90 |

Biological target: T3, human calcitonin receptor
Assay: SPA radioligand competition (125I-calcitonin), membranes of BHK cells with human calcitonin receptor
Method in brief: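 BHK hCTR membranes 35 ng/μL + SPA beads 0.05 mg/well; buffer 50 mM Hepes pH 7.4, 1 mM CaCl2, 5 mM MgCl₂, 0.1% OA, 0.02% Tween20. 120 min, 25° C., shaking. Scintillation count; IC50 by one-site binding competition.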

| Binder | IC50 [nM] |
| --- | --- |
| B3 | 15.5 |
| B4 | 73.4 |
| B5 | 19.5 |
| B6 | 102 |

Biological target: T4, human amylin receptor
Assay: SPA radioligand competition (125I-rat amylin), membranes of BHK cells with human calcitonin receptor + RAMP-3
Experimental: The binding assay was performed using scintillation proximity assay (SPA) beads (RPNQ0001) from PerkinElmer and cell membranes from the Amylin 3(a)/CRE-luc cells (as described in Assay (II)) were used. Membranes were prepared in the following way; the cells were rinsed with PBS and incubated with Versene for approximately 5 min before harvesting. The cells were flushed with PBS and the cell-suspension was centrifuged for 5 min at 1000 rpm. Cells were homogenized (ultrathurrax) in a buffer containing 20 mM Na-HEPES and 10 mM EDTA (pH 7.4) and centrifuged at 20.000 rpm for 15 min. The resulting pellet was resuspended, homogenized and centrifuged (20.000 rpm, 15 min) in a buffer containing 20 mM Na-HEPES and 0.1 mM EDTA (pH 7.4, buffer 2). The resulting pellet was resuspended in buffer 2 and protein concentration was measured (BCA protein Assay, Pierce). The homogenate was kept cold during the whole procedure. The membranes were kept at −80° C. until use. The assay was performed in a 384 well Optiplate (PerkinElmer) in a total volume of 40 ul. Membranes were mixed with SPA beads. Final concentration of membranes 35 ng/μL final and SPA beads was 0.05 mg/well. Test-compounds were dissolved in DMSO and further diluted in assay buffer (50 mM Hepes, pH 7.4, 1 mM CaCl2, 5 mM MgCl₂, 0.1% OA and 0.02% Tween20). […] The final mixture was incubated with shaking at 400 rpm for 120 min at 25° C. prior to centrifugation (1500 rpm, 10 min). Samples were analyzed on TopCounter™ (Packard). The IC₅₀ was calculated using (one site binding competition analysis) GraphPad Prism5 as a measure of receptor affinity.

| Binder | IC50 [nM] |
| --- | --- |
| B3 | 0.597 |
| B4 | 1.14 |
| B5 | 0.411 |
| B6 | 1.14 |
